Results from paper PMC8413711 (2021).

B1: BD-503 (antibody, V domains shown)
VH: EVQLVESGGGLIQPGGSLRLSCAASGLIVSSNYMSWVRQAPGKGLEWVSVLYAGGSTDYAGSVKGRFTISRDNSKNTLYLQMNSLRAEDTAVYYCARDAAVYGIDVWGQGTTVTVSS
VL: not shown
B2: BD-623 (antibody, V domains shown)
VH: EVQLVESGGGLVQPGGSLRLSCAASGFTVSSNYMSWVRQAPGKGLEWVSIIYSGGSTYYADSVKGRFTISRDNSKNTLYLQMNSLRAEDTAVYYCARDYAGRVWGQGTLVTVSS
VL: QSALTQPASVSGSPGQSITISCTGTSSDVGSYNLVSWYQQRPGKAPKLILYEVTKRPSGVSNRFSGSKSGNTASLAISGLQAEDEADYYCCSYAGSSTWVFGGGTKLTVL
B3: BD-515 (antibody, V domains shown)
VH: EVQLVESGGGLVQPGGSLRLSCAASEFIVSRNYMSWVRQAPGKGLEWVSVIYSGGSTFYADSVKGRFTISRDNSKNTLYLQMNSLRAEDTGVYYCARDRGLVSDYWGQGTLVTVSS
VL: DIQMTQSPSSLSASVGDRVTITCQASQDINKYLNWYQQKPGKAPKLLIFDASHLETGVPSRFSASGSGTDFTFTISSLQPEDIATYYCHQYDNLPRTFGQGTRLEIK
B4: BD-604 (antibody, V domains shown)
VH: EVQLVESGGGLIQPGGSLRLSCAASGIIVSSNYMTWVRQAPGKGLEWVSVIYSGGSTFYADSVKGRFTISRDNSKNTLYLQMSSLRAEDTAVYYCARDLGPYGMDVWGQGTTVTVSS
VL: DIQLTQSPSFLSASVGDRVTITCRASQGISSDLAWYQQKPGKAPNLLIYAASTLQSGVPSRFSGSGSGTEFTLTISSLQPEDFATYYCQQLNSDLYTFGQGTKLEIK
B5: BD-508 (antibody, V domains shown)
VH: EVQLVESGGGLVQPGGSLRLSCAASGFIVSSNYMTWVRQAPGKGLEWVSVIYSGGSTFYADSVKGRFTISRHNSKNTLFLQMNSLRAEDTAVYYCARDAQNYGMDVWGQGTTVTVSS
VL: DIQMTQSPSSLSASVGDRVTITCRASQSISSYLNWYQQKPGKAPKLLIFAASSLQTGAPSRFSGSGSGTDFTLTISSLQPEDFATYYCQQSYSTPPYTFGQGTKLEIK

Legend:
SARS-CoV-2 RBD [1] = molecular target: T1, SARS-CoV-2 RBD (SARS-CoV-2, UniProt P0DTC2 319-541); experiment: SPR
SARS-CoV-2 RBD [2] = molecular target: T1, SARS-CoV-2 RBD; experiment: SPR; remark: listed apart in the source

Binder | Kd (SARS-CoV-2 RBD [1]) | koff (SARS-CoV-2 RBD [2])
B1 | 0.204 nM | 
B2 | 0.12 nM | 
B3 | 0.561 nM | 0.000389 s⁻¹
B4 | 0.012 nM | 
B5 | 1.3 nM | 0.000514 s⁻¹
